Consider two substances from paper PMC6973308.

In assay [1] the target is anti-HER2 (trastuzumab) light chain, produced alone. The assay is described as follows: SEC. For orientation: Size exclusion chromatography separates by hydrodynamic size, large species first.
In assay [2] the target is anti-HER2 (trastuzumab) heavy chain, produced alone. The assay is described as follows: SEC.
Assay [3] deals with anti-HER2 (trastuzumab) light chain, produced alone. The assay is described as follows: SDS-PAGE.
Assay [4] concerns the target anti-HER2 (trastuzumab) heavy chain, produced alone. The assay is described as follows: HPLC-MS.
The target is the same in assay [5]. The assay is described as follows: SDS-PAGE.

The term stoichiometry N denotes the number of molecules, sites or subunits per partner or assembly. Substance “anti-HER2 (trastuzumab) light chain, produced alone (domain or fragment)” had a stoichiometry N in assay [1] of 2. The substance further displayed a % Area of monomer mAb (SEC-HPLC) in assay [2] of 90.1 % Area. In addition, in assay [3], the percent of LC dimers covalently bonded (42 KDa band) was 55%.
In the case of “anti-HER2 (trastuzumab) heavy chain, produced alone (domain or fragment)”, the stoichiometry N in assay [4] and in assay [5] was 2 in each case.
